B1: AtTAR1 (Arabidopsis thaliana) (protein)
chain: MMVGCENSKKSDSGSNEDKSLSDDIINLDQGDPTAFQEYWMKKKDRCTVVIPAWDLMSYFSDTKNVCWFLEPELEKAIKALHGAIGNAATEERYIVVGTGSSQLCQAALFALSSLSEVKPVSIVAAVPYYSTYVEEASYLQSTLYKWEGDARTFDKKGPYIELVTSPNNPDGIMREPVVNRREGGKVIHDLAYYWPHYTPITRRQDHDLMLFTFSKITGHAGSRIGWALVKDIEVAKKMVHYLTINSIGVSKESQTRATTILNELTKTCRTQSESFFEYGYEKMKSRWERLREVVESGDAFTLPNYPQDFCNFFGKTLSTSPAFAWLGYKEERDLGSLLKEKKVLTRGGDRCGCNKRYVRVSMLSRDDDFDVSLQRLATIKDLKCVEP
B2: AtTAA1 (Arabidopsis thaliana) (protein)
chain: MVKLENSRKPEKISNKNIPMSDFVVNLDHGDPTAYEEYWRKMGDRCTVTIRGCDLMSYFSDMTNLCWFLEPELEDAIKDLHGVVGNAATEDRYIVVGTGSTQLCQAAVHALSSLARSQPVSVVAAAPFYSTYVEETTYVRSGMYKWEGDAWGFDKKGPYIELVTSPNNPDGTIRETVVNRPDDDEAKVIHDFAYYWPHYTPITRRQDHDIMLFTFSKITGHAGSRIGWALVKDKEVAKKMVEYIIVNSIGVSKESQVRTAKILNVLKETCKSESESENFFKYGREMMKNRWEKLREVVKESDAFTLPKYPEAFCNYFGKSLESYPAFAWLGTKEETDLVSELRRHKVMSRAGERCGSDKKHVRVSMLSREDVFNVFLERLANMKLIKSIDL

Assays:
Test in all cases: purified protein
Format in all cases: biochemical, Arabidopsis thaliana
[1] = substrate: N[C@@H](Cc1c[nH]c2ccccc12)C(=O)O; settings: 0.2 mM PLP, 100 mM HEPES pH 8.0, 30 °C
[2] = substrate: N[C@@H](Cc1c[nH]cn1)C(=O)O; settings: 20 mM alpha-ketoglutarate, 0.2 mM PLP, 100 mM HEPES pH 8.0, 30 °C
[3] = substrate: N[C@@H](Cc1ccc(O)cc1)C(=O)O; settings: 0.2 mM PLP, 100 mM HEPES pH 8.0, 30 °C
[4] = substrate: N[C@@H](Cc1ccccc1)C(=O)O; settings: 0.2 mM PLP, 100 mM HEPES pH 8.0, 30 °C

Row | Protein | Km ([1]; 20 mM alpha-ketoglutarate) | kcat ([1]; 20 mM alpha-ketoglutarate) | Km [2] | kcat [2] | Km ([3]; 20 mM alpha-ketoglutarate) | kcat ([3]; 20 mM alpha-ketoglutarate) | Km ([4]; 20 mM alpha-ketoglutarate) | kcat ([4]; 20 mM alpha-ketoglutarate) | Km ([1]; 20 mM pyruvate) | kcat ([1]; 20 mM pyruvate) | Km ([3]; 20 mM pyruvate) | kcat ([3]; 20 mM pyruvate) | Km ([4]; 20 mM pyruvate) | kcat ([4]; 20 mM pyruvate)
1 | B1 | 0.07 ± 0.02 mM | 4.5 ± 0.2 s⁻¹ | 30 ± 6 mM | 1.8 ± 0.1 s⁻¹ | 1 ± 3 mM | 4.0 ± 0.3 s⁻¹ | 2.6 ± 0.3 mM | 5.0 ± 0.2 s⁻¹ | – | – | – | – | – | –
2 | B2 | – | – | 11 ± 2 mM | 0.6 ± 0.1 s⁻¹ | – | – | – | – | 1.2 ± 0.2 mM | 4.2 ± 0.2 s⁻¹ | 8 ± 3 mM | 13.2 ± 0.3 s⁻¹ | 13 ± 3 mM | 2.0 ± 0.3 s⁻¹
